According to ChEMBL document CHEMBL1275330, “Rational design, synthesis, and evaluation of new selective inhibitors of microbial class II (zinc dependent) fructose bis-phosphate aldolases” (J Med Chem, 2010):

Assays:
[1] = substrate: O=C(COP(=O)(O)O)N(O)CCCOP(=O)(O)O; conditions: Oryctolagus cuniculus
[2] = substrate: O=C(COP(=O)(O)O)N(O)CCCCOP(=O)(O)O; conditions: Oryctolagus cuniculus
[3] = substrate: CCCCCCCCCCCC(=O)OCCCCN(O)C(=O)COP(=O)(O)O; conditions: Mycobacterium tuberculosis
[4] = substrate: O=C(COP(=O)(O)O)N(O)CCCCOP(=O)(O)O; conditions: Candida albicans
[5] = substrate: CCCCCCCCCCCC(=O)OCCCCN(O)C(=O)COP(=O)(O)O; conditions: Helicobacter pylori
[6] = substrate: O=C(COP(=O)(O)O)N(O)CCCCOP(=O)(O)O; conditions: Helicobacter pylori
[7] = substrate: CCCCCCCCCCCC(=O)OCCCCN(O)C(=O)COP(=O)(O)O; conditions: Yersinia pestis

B1: Fructose-bisphosphate aldolase A (Oryctolagus cuniculus), P00883 (protein)
chain: MPHSHPALTPEQKKELSDIAHRIVAPGKGILAADESTGSIAKRLQSIGTENTEENRRFYRQLLLTADDRVNPCIGGVILFHETLYQKADDGRPFPQVIKSKGGVVGIKVDKGVVPLAGTNGETTTQGLDGLSERCAQYKKDGADFAKWRCVLKIGEHTPSALAIMENANVLARYASICQQNGIVPIVEPEILPDGDHDLKRCQYVTEKVLAAVYKALSDHHIYLEGTLLKPNMVTPGHACTQKYSHEEIAMATVTALRRTVPPAVTGVTFLSGGQSEEEASINLNAINKCPLLKPWALTFSYGRALQASALKAWGGKKENLKAAQEEYVKRALANSLACQGKYTPSGQAGAAASESLFISNHAY
B1 was tested, and the Km [1] was 264 µM and the Km [2] was 15 µM.

B2: Fructose-bisphosphate aldolase (Mycobacterium tuberculosis), P9WQA3 (protein)
chain: MPIATPEVYAEMLGQAKQNSYAFPAINCTSSETVNAAIKGFADAGSDGIIQFSTGGAEFGSGLGVKDMVTGAVALAEFTHVIAAKYPVNVALHTDHCPKDKLDSYVRPLLAISAQRVSKGGNPLFQSHMWDGSAVPIDENLAIAQELLKAAAAAKIILEIEIGVVGGEEDGVANEINEKLYTSPEDFEKTIEALGAGEHGKYLLAATFGNVHGVYKPGNVKLRPDILAQGQQVAAAKLGLPADAKPFDFVFHGGSGSLKSEIEEALRYGVVKMNVDTDTQYAFTRPIAGHMFTNYDGVLKVDGEVGVKKVYDPRSYLKKAEASMSQRVVQACNDLHCAGKSLTH
B2 gave a Km [3] of 0.31 µM.

B3: Fructose-bisphosphate aldolase (Candida albicans (strain SC5314 / ATCC MYA-2876) (Yeast)), Q9URB4 (protein)
chain: MAPPAVLSKSGVIYGKDVKDLFDYAQEKGFAIPAINVTSSSTVVAALEAARDNKAPIILQTSQGGAAYFAGKGVDNKDQAASIAGSIAAAHYIRAIAPTYGIPVVLHTDHCAKKLLPWFDGMLKADEEFFAKTGTPLFSSHMLDLSEETDDENIATCAKYFERMAKMGQWLEMEIGITGGEEDGVNNEHVEKDALYTSPETVFAVYESLHKISPNFSIAAAFGNVHGVYKPGNVQLRPEILGDHQVYAKKQIGTDAKHPLYLVFHGGSGSTQEEFNTAIKNGVVKVNLDTDCQYAYLTGIRDYVTNKIEYLKAPVGNPEGADKPNKKYFDPRVWVREGEKTMSKRIAEALDIFHTKGQL
B3 gave a Km [4] of 100 µM.

B4: Fructose-bisphosphate aldolase (Helicobacter pylori (strain ATCC 700392 / 26695) (Campylobacterpylori)), P56109 (protein)
chain: MLVKGNEILLKAHKEGYGVGAFNFVNFEMLNAIFEAGNEENSPLFIQTSEGAIKYMGIDMAVGMVKTMCERYPHIPVALHLDHGTTFESCEKAVKAGFTSVMIDASHHAFEENLELTSKVVKMAHNAGVSVEAELGRLMGIEDNISVDEKDAVLVNPKEAEQFVKESQVDYLAPAIGTSHGAFKFKGEPKLDFERLQEVKRLTNIPLVLHGASAIPDNVRKSYLDAGGDLKGSKGVPFEFLQESVKGGINKVNTDTDLRIAFIAEVRKVANEDKSQFDLRKFFSPAQLALKNVVKERMKLLGSANKI
B4 was tested, and the Km [5] was 4 µM and the Km [6] was 0.07 µM.

B5: Fructose-bisphosphate aldolase class II (Yersinia pestis), A0A380PJR2 (protein)
chain: MSKIFDFVKPGVITGDDVQKVFAVAKENNFALPAVNCVGTDSINAVLETAAKVRAPVIVQFSNGGAAFIAGKGVKTDAPQGAAILGAISGAHHVHQMAEHYGVPVILHTDHCAKKLLPWLDGLLDAGEKHFAATGKPLFSSHMIDLSEESLEENIEICSKYLTRMSKIGMTLEIELGCTGGEEDGVDNSHMDASSLYTQPQDVDYAYEKLNAISPRFTIAASFGNVHGVYKPGNVKLTPTILRDSQDYVSKKHNLPHNSLNFVFHGGSGSTAEEIKEAVSYGVVKMNIDTDTQWATWEGILNYYKKNEGYLQGQLGNPEGADKPNKKYYDPRVWLRAAQVTMITRLELAFKELNAIDVL
B5 gave a Km [7] of 0.234 µM.
